Reference: patent US20230158165

Legend:
[1] = system: PEG2 construct peptide (KKKK-Peg2-Val-Cit-Tregitope-Nle), before addition of MPA and HSA
[2] = system: PEG12 construct peptide (Peg12-Val-Cit-Tregitope-Nle), before addition of MPA and HSA

**Q.** For “Recombinant human Cathepsin B (catalog 953-CY of R&D Systems)”, which “cleavage of the Val-Cit site, evaluated by mass spec” value [1] is on record?
**A.** the PEG2 peptide did not have successful cleavage, and further modification of the Cathepsin B protocol did not produce successful cleavage

**Q.** What about the “cleavage of the Val-Cit site, evaluated by mass spec” value [2] of the same substance?
**A.** For the PEG12 product, successful cleavage is demonstrated
